Measured values reported in IntAct's records for PubMed 30530185.

B1: Coiled-coil-helix-coiled-coil-helix domain-containing protein 2 (Homo sapiens), Q9Y6H1 (parent)
chain: MPRGSRSRTSRMAPPASRAPQMRAAPRPAPVAQPPAAAPPSAVGSSAAAPRQPGLMAQMATTAAGVAVGSAVGHTLGHAITGGFSGGSNAEPARPDITYQEPQGTQPAQQQQPCLYEIKQFLECAQNQGDIKLCEGFNEVLKQCRLANGLA
partner: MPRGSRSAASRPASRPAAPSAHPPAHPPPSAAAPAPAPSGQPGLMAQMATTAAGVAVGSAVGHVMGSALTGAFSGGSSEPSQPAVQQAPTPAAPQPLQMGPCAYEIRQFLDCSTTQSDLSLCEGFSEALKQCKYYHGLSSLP

Variants of: B1
Details: with chc10_human CHCHD10, Q8WYQ3

Variant | effect of a mutation on the interaction
MPRGSRSRTSRMAPPASRAPQMRAAPRPAPVAQPPAAAPPSAVGSSAAAPRQPGLMAQMAITAAGVAVGSAVGHTLGHAITGGFSGGSNAEPARPDITYQEPQGTQPAQQQQPCLYEIKQFLECAQNQGDIKLCEGFNEVLKQCRLANGLA [T61I] | increasing interaction strength
